This experiment concerns the target Plasmid-expressed Nme2Cas9 (human-codon-optimized, with NLSs and 3xHA tag), expressed in HEK293T cells (Neisseria meningitidis strain Del1444). Kind of experiment: cell-based or functional assay. The settings on record: scale: mass ratio of Acr plasmid to Nme2Cas9 plasmid.

For the substance AcrIIC1Nme, the dose dependence of Acr inhibition of Nme2Cas9 genome editing: mass ratio of cotransfected Acr and Nme2Cas9 plasmids giving full inhibition turned out to be 2.

As for AcrIIC4Hpa, the dose dependence of Acr inhibition of Nme2Cas9 genome editing: mass ratio of cotransfected Acr and Nme2Cas9 plasmids giving full inhibition was determined as 1.

Source of the values: US20220290113A1.
